In assay [1] the target is T1, Human CFHL1-Y402H-His (ATX-P-421) (human).
T1 construct: also called human CFHL-1 (Y402H) protein
T1 chain: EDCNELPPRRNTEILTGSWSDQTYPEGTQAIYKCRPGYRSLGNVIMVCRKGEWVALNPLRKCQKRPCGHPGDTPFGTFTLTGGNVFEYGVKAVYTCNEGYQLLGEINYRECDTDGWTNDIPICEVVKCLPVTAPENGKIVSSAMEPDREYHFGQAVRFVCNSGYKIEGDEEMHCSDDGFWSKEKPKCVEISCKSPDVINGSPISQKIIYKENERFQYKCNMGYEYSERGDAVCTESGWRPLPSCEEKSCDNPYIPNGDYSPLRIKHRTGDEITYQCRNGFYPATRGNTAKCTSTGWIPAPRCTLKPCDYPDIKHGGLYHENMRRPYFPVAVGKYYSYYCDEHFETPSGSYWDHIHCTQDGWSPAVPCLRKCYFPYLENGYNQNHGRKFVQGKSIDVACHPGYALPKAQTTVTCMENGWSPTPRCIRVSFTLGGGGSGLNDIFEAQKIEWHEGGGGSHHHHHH
Description: Carterra LSA biosensor, mAb printed on chip, human CFHL1-Y402H-His at 380 nM. On the procedure:
(§1) Experiments were also conducted to determine the reactivity of the CFHR4 antibodies with the human CFHL-1 (Y402H) protein (FIG. 10). The binding experiments were performed on Carterra LSA with a running buffer of PBS pH 7.40, 1% BSA, 0.05% Tween20. Antibodies were covalently printed on an HC30M chip. Chip was activated with 33 mM s-NHS and 133 mM EDC in 100 mM MES pH 5.5 for 7 minutes. Antibodies at 10 mg/ml in acetic acid buffer pH 4.5 were used for printing for 10 min. The printed chip was then quenched with 1 M ethanolamine pH 8.5 for 7 min. For the reactivity assay, ATX-P-421, human CFHL1-Y402H-His, at 380 nM was tested with 5 min association followed by 15 min dissociation. Results were processed and analyzed in Carterra LSA Kinetics Software. The data was referenced with the interstitial reference spots and double-referenced to a buffer cycle, and then the responses (nm) after association were reported. Isotype control was used to determine the cutoff response for positive binding.

The target of assay [2] is T2, human CFHL3-His (ATX-P-58) (human, UniProt Q02985 19-330).
T2 construct: also called human CFHR3 protein; CFHR3; not shown: C-terminal His tag (and linker)
T2 sequence (looked up): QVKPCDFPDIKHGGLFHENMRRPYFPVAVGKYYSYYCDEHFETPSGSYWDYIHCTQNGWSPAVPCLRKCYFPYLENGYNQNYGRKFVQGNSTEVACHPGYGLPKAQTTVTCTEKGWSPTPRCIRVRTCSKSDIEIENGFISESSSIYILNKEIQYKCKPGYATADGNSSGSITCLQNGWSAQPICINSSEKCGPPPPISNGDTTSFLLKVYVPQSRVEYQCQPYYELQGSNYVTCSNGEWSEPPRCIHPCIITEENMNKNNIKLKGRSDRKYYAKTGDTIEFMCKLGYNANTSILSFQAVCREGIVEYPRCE
Description: Carterra LSA biosensor, mAb printed on chip, human CFHL3-His at 550 nM. The procedure: as §1, with “CFHR3” for “CFHL-1 (Y402H)”, “9).” for “10).”, “ATX-P-58,” for “ATX-P-421,”, “CFHL3-His,” for “CFHL1-Y402H-His,”, “550” for “380”

B1: ATX-P-576 (antibody, human IgG1, kappa, N297A, V domains shown)
VH: EVQLVESGGGLVQPGRSLRLSCTASGFTFDDYEMHWVRQAPGKGLEWVSDISRNSGRIGYADSVKGRFTISRDNAKNSLYLQMNSLRAEDTALYYCAKDIWGSGYFDYWGQGILVTVSS
VL: DIQMTQSPSSVSASVGDRVTITCRTSQGIRNWLAWYQQKPGKAPKLLIYAASSLQTGGPSRFSGSGSGTDFTLTISSLQPEDFATYYCQQANSFPYTFGQGTKLEIKR
As for B1, the binding result in assay [1] and in assay [2] was “binds” in each case.

B2: ATX-P-578 (antibody, human IgG1, kappa, N297A, V domains shown)
VH: EVQLVESGGGLVQPGGSLRLSCAASGFTFSRYSMNWVRQAPGKGLEWVSYISSSSSTIFHADSVKGRFTISRDNAKNSLYLQMNSLRDEDTAVYYCARGNWNYYYMDVWGKGTTVTVSS
VL: DIQMTQSPSTLSASVGDRVTISCRASQSVNSWLAWYQQKPGKAPKLLIYKASNLEGGVPSSFSGSGSGTEFTLTISSLQPDDFATYYCQQYDTSWTFGQGTKVEIKR
Regarding B2, the binding result in assay [1] and in assay [2] was “binds” each time.

B3: ATX-P-563 (antibody, human IgG1, kappa, N297A, V domains shown)
VH: QVQLQESGPGLMKPSETLSLTCTVSGGSISSHYWSWIRQPPGKGLEWIGYIFYSGNINYNPSLKSRVTISVDTSKNQFSLKLRSVTTADTAVYYCARDRGGSYSYHFDCWGQGTLVTVSS
VL: DIQMTQSPSSVSASVGDRVTITCRASQSFAGWLAWYQQKPGKAPKLLIYAASTLQSGVPSRFSGSGSGTDFTLTISSLQPEDFATYYCQQANSFPLTFGGGTKVEIKR
For B3, the binding result in assay [1] and in assay [2] was “binds” each time.

B4: ATX-P-583 (antibody, human IgG1, kappa, N297A, V domains shown)
VH: QVQLVQSGAEVKKPGASVKVSCKASGYTFTTYGISWVRQAPGQGLEWMGWISAYSGNTHYAQSLQDRVTMTTDTSTSTAYMEVRSLRSDDTAVYYCAKDEGYCSSTGCLNLFDPWGQGTLVTVSS
VL: DIQMTQSPSSLSASVGDRVTITCRASQNIGSYLNWYQQKPGNAPKLLIYATSTLQSGVPSRFSGSGSGTDFTLIISSLHPEDFTVYYCQQSFIIPFTFGPGTKVDIKR
Consider B4, for which the binding result in assay [1] and in assay [2] was “binds” throughout.

B5: ATX-P-562 (antibody, human IgG1, kappa, N297A, V domains shown)
VH: QVQLQQSGPGLVKSSQTLSLTCAISGDTVSSNSAAWNWIRQSPSRGLEWLGRTFYRSRWSAAYAASVSSRITINPDTSKNQFSLQLTSVTPADTAVYYCAREGVGSSTGFDYWGQGTLVTVSS
VL: DIQMTQSPSSVSASIGDRVTITCRASKGISIWLAWYQQKPGKAPKVLISAASSLQSGAPSRFSGSGSGTDFTLTISSLQPEDFATYYCQQANSFPPTFGQGTKVEIKR
Take B5: the binding result in assay [1] and in assay [2] was “binds” each time.

B6: ATX-P-573 (antibody, human IgG1, kappa, N297A, V domains shown)
VH: QVQLQQSGPGLVKPSQTLSLTCAISGDSVSSNSAAWNWIRQSPSRGLEWLGRTYYRSKLYSDYAVSVKSRITINPDTSRNQFSLQLNSVTPEDTAVYYCAREGGYTYGYDYWGQGTLVTVSS
VL: DIQMTQSPSSVSASVGDRVTITCRASQGISSWLAWYQQKPGKAPKVLIYAASSLQSGVPSRFSGSGSGTDFTLTISSLQPEDFATYYCQQANSFPPTFGPGTKVDIKR
As to B6, the binding result in assay [1] and in assay [2] was “binds” in each case.

B7: ATX-P-574 (antibody, human IgG1, kappa, N297A, V domains shown)
VH: EVQLVESGGGLVQRGGSLRLSCVASGFTFSSYAMSWVRQAPGKGLEWVSVISGSGGTTYYADSVKGRFTISRDDSKKTLYLQMNSLRAEDTAVYYCAKRGDYGDYMDVWGKGTTVTVSS
VL: DIQMTQSPSSVSASVGDRVTITCRASQGITTWLAWYQQKPGKAPKLLIFGASSLESGVPSRFSGSGSGTDFTLTISSLQPEDFATYYCQQANSFPWTFGQGTKVEIKR
Regarding B7, the binding result in assay [1] and in assay [2] was “binds” throughout.

B8: ATX-P-577 (antibody, human IgG1, kappa, N297A, V domains shown)
VH: QVQLQESGPGLVKPSGTLSLTCAVSGGSISSSNWWTWVRQPPGKGLEWIGETYHDGSTNYNPSLKSRVTISVDKSKNQFSLKLSSVTAADTAVYYCLEFYFDYWGQGTLVTVSS
VL: DIQMTQSPSSLSASVGDRVTITCRASQDIRNDLGWYQQKPGKVPKRLIYAASSLQSGVPSRFSGSGSGTEFTLTISSLQPEDFASYYCLQYNNYPFTLGPGTKVDIKR
Consider B8, for which the binding result in assay [1] and in assay [2] was “binds” each time.

B9: ATX-P-580 (antibody, human IgG1, kappa, N297A, V domains shown)
VH: QVQLQESGPGLVKPSGTLSLTCAVSGGSISTSDWWTWVRQPPGKGLEWIGEIYHSGSTNYNPSLKSRVTISVDKSKNQFSLKLSSVTAADTAVYYCADWYFDLWGRGTLVTVSS
VL: DIQMTQSPSSLSASVGDRVTITCRASQGIRNDLGWYQQKPGKAPKRLIYAASSLQSGVPSRFSGSGSGTEFTLAISSLQPEDFATYYCLHFNSYPFTFGPGTKVDIKR
Consider B9, for which the binding result in assay [1] and in assay [2] was “binds” each time.

B10: ATX-P-579 (antibody, human IgG1, kappa, N297A, V domains shown)
VH: QVQLQESGPGLVKPSGTLSLTCAVSGASISTSNWWTWVRQPPGKGLEWIGEIYHDGSTNYSPSLQSRVTISVDKSKNQFSLTLTSVTAADTAIYYCGDFYIDVWGNGTTVTVSS
VL: DIQMTQSPSSLSASVGDRVTITCRASQGIRKDLGWYQQKPGKAPKRLIYTASTLQSGVPSRFSGSGSGTEFTLTISSLQPEDFATYYCLQYNNYPFTFGPGTKVDIKR
With B10, the binding result in assay [1] and in assay [2] was “binds” throughout.

B11: ATX-P-564 (antibody, human IgG1, kappa, N297A, V domains shown)
VH: EVQLVESGGGLVKPGGSLRLSCAASGFTFSSYTMNWVRQAPGKGLEWVSSISSSSSYTYYADSVRGRFTISRDNAKNSLYLQMSSLRAEDTAVYYCARSASIAAGMDVWGKGTTVTVSS
VL: DIVMTQSPLSLPVTPGEPASISCRSSQSLLHSTGYNFLDWYLQKPGLSPQLLIYLASNRASGVPDRFSGSGSGTDFTLKISRVEAEDVGVYYCMQALQTPYTFGQGTKLEIKR
B11: the binding result in assay [1] and in assay [2] was “binds” throughout.

B12: ATX-P-565 (antibody, human IgG1, kappa, N297A, V domains shown)
VH: QVQLVESGGGVVQPGRSLRLSCAASGFTFNTYGIHWVRQAPGKGLEWVAVIWHDGSSKNYVDSVTGRFTISRDNSKNTVYLQMNSLRAEDTAVYYCARRGNWNYGFYYYYMDVWGKGTTVTVSS
VL: DIVMTQSPLSLPVTPGEPASISCRSSQRLLHSSGYNYLDWYLQKPGQSPQLLIYLGSSRASGVPDRFSGSGSGTDFTLKISRVEAEDVGVYYCMQGLQTPPTFGQGTKVEIKR
On to B12, for which the binding result in assay [1] and in assay [2] was “binds” in each case.

B13: ATX-P-568 (antibody, human IgG1, kappa, N297A, V domains shown)
VH: EVQLVESGGGLVQPGGSLRLSCAASGFPFSSYVMSWVRQAPGKGLEWVSVISVSGGSTFYADSVRGRFTISRDNSKNTLYLQVYSLRAEDTAVYYCAKDGLAVAGFDHWGQGTLVTVSS
VL: DIQMTQSPSTLSASVGDRVTITCRASQSISTWLAWYQQKPGKAPKLLIHKASGLESGVPSRFSGSGSGTEFTLTISSLQPDDFATYYCQQYNSFSLIFGGGTRVEIKR
Regarding B13, the binding result in assay [1] and in assay [2] was “binds” in each case.

B14: ATX-P-566 (antibody, human IgG1, kappa, N297A, V domains shown)
VH: QVQLQQSGPGLVKPSQTLSLTCAISGDSVSSNSAAWNWIRQSPSRGLEWLGRTYYRSKWFNNYSVSVKSRIAINPDTSKNQFSLQLNSVTPEDTAVYYCARDLGELLDWYFDLWGRGTLVTVSA
VL: EIVLTQSPGTLSLSPGDRATLSCRASQSVRNSYVAWYQQKPGQAPRLLIYGASSRATGIPDRFSGSGSGTDFSLTIGRLEPEDFVVYYCQQYGNSPLTFGGGTKVEIKR
As to B14, the binding result in assay [1] and in assay [2] was “binds” each time.

For the origin of these results see patent publication US20250289873A1 (BROADWING BIO, published 2025).
